Test results as given in paper doi:10.1101/2025.06.17.660062 (bioRxiv, 2025).

Key:
[1] = target: R^EEZZ (RZZ with phosphomimetic ROD T13E-S15E) (UniProt P50748 1-2209; Q9H900 1-591; O43264 1-779, T13E | S15E); test: pull-down
[2] = target: mCherry-RZZ (ROD-Zwilch-ZW10 complex, wild type) (UniProt P50748 1-2209; Q9H900 1-591; O43264 1-779); test: SEC
Chain of mCherry-RZZ (ROD-Zwilch-ZW10 complex, wild type) (P50748 whole entry, chain 1 of 3): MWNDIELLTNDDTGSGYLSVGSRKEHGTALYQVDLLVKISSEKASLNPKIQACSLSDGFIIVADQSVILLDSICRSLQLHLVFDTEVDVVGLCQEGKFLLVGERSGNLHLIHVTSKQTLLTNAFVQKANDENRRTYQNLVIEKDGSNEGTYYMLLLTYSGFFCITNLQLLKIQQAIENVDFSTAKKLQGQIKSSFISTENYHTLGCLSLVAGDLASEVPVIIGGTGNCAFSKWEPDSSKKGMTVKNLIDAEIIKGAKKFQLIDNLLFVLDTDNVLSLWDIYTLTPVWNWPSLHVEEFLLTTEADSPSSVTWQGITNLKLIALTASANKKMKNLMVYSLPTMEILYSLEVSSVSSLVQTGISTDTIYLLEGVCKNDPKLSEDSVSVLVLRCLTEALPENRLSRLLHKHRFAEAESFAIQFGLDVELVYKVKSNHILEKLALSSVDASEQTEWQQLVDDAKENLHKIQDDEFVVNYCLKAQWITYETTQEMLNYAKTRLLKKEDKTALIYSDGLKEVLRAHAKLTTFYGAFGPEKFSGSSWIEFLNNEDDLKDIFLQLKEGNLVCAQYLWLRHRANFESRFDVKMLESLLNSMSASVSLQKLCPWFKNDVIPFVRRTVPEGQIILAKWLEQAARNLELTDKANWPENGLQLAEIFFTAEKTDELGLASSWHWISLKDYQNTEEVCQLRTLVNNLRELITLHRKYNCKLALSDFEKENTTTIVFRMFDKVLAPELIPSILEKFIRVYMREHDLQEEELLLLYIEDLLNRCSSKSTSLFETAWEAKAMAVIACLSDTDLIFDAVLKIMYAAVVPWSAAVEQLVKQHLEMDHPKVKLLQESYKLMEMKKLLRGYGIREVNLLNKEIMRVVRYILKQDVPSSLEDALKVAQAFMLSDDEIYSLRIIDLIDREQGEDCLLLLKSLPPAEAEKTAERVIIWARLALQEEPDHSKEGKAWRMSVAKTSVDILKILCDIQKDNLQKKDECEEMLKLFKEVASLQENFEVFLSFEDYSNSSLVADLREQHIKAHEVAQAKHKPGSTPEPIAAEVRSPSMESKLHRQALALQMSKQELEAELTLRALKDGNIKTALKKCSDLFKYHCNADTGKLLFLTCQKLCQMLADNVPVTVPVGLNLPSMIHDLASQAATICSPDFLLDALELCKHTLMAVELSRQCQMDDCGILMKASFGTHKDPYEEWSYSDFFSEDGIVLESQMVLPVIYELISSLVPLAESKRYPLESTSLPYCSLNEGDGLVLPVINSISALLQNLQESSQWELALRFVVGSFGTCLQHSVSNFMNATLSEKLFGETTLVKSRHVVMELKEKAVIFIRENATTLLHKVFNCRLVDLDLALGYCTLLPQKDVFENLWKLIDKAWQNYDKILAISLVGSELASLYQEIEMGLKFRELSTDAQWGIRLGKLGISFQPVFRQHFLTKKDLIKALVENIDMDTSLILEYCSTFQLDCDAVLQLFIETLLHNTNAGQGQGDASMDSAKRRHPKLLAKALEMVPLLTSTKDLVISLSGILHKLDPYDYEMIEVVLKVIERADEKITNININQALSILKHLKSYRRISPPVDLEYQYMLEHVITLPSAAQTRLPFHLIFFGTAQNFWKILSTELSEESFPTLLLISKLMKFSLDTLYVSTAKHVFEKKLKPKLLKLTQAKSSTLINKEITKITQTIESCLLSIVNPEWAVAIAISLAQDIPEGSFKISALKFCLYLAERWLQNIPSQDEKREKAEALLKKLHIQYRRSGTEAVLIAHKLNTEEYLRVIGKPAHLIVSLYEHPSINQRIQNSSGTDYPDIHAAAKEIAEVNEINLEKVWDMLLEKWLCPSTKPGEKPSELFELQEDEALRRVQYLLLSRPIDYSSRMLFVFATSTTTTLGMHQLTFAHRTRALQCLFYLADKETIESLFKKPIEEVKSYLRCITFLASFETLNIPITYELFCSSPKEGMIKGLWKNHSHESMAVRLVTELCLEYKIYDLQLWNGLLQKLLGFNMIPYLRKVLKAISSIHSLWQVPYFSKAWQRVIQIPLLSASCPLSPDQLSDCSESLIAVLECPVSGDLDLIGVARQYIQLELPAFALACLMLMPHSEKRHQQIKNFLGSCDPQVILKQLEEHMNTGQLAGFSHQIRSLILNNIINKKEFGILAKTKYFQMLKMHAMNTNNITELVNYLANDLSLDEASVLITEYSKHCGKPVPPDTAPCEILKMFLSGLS
Chain of mCherry-RZZ (ROD-Zwilch-ZW10 complex, wild type) (Q9H900 whole entry, chain 2 of 3): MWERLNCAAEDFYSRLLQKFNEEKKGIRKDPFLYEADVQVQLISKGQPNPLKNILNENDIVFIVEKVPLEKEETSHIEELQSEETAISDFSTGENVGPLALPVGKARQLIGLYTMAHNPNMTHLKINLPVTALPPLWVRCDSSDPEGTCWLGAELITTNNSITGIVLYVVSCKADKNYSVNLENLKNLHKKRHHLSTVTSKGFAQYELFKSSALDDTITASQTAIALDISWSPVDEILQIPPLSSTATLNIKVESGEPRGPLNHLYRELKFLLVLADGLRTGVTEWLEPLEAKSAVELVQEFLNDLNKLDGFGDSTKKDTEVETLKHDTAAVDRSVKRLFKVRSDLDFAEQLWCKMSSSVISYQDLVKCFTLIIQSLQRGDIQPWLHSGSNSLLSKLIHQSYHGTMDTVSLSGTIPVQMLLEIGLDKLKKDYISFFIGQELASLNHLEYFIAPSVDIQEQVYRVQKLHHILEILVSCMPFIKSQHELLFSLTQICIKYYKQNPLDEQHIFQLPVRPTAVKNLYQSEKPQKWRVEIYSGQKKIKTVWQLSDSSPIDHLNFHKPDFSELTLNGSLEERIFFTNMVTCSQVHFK
Chain of mCherry-RZZ (ROD-Zwilch-ZW10 complex, wild type) (O43264 whole entry, chain 3 of 3): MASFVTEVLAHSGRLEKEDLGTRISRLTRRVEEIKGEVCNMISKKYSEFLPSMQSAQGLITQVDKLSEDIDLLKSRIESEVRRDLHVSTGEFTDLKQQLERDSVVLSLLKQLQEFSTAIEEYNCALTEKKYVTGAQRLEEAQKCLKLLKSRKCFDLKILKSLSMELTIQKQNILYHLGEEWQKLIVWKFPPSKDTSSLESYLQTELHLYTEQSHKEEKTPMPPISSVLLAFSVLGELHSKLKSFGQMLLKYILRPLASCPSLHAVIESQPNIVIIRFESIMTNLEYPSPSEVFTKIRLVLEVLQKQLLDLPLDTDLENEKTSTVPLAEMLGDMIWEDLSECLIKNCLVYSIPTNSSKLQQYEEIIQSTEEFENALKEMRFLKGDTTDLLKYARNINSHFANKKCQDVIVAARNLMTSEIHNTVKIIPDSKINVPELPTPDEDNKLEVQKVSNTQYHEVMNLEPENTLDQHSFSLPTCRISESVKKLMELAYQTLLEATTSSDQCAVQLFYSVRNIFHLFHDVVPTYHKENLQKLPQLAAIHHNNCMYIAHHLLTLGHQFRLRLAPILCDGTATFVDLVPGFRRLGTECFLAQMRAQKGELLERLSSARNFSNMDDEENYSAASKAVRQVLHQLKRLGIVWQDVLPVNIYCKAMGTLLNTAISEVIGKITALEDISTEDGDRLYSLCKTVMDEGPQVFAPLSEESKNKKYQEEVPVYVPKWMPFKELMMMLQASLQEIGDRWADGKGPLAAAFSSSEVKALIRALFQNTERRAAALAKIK

Chain of R^EEZZ (RZZ with phosphomimetic ROD T13E-S15E) (P50748 whole entry T13E/S15E, chain 1 of 3): as the sequence (P50748 whole entry, chain 1 of 3) above, with T13E, S15E counted along it
Chain of R^EEZZ (RZZ with phosphomimetic ROD T13E-S15E) (Q9H900 whole entry, chain 2 of 3): as the sequence (Q9H900 whole entry, chain 2 of 3) above
Chain of R^EEZZ (RZZ with phosphomimetic ROD T13E-S15E) (O43264 whole entry, chain 3 of 3): as the sequence (O43264 whole entry, chain 3 of 3) above

B1: GST-BUB1^467-521 (domain or fragment, UniProt O43683 467-521, looked up)
chain: ALGFIMNMFQAPTLPDISDDKDEWQSLDQNEDAFEAQFQKNVRSSGAWGVNKIIS
binding result [1]: binds | binding result [2]: binds
